Laboratory results as given in patent publication US20260070986A1 (AFFIMED, published 2026).

Key:
[1] = biological target: T1, human CD16A (158F) on transfected CHO cells (cAg_34) (human, UniProt P08637 17-254); experiment: flow cytometry on huCD16A-transfected CHO cells (cAg_34), one-site fit of MFI, experiment 3
T1 construct: Exact cell-anchored construct not described; also called huCD16A
Procedure: After washing in FACS buffer, cells were incubated in 50 μL FACS buffer without antibodies or with titrated antibodies starting at a concentration of 100 μg/mL followed by ten 5-fold serial dilutions for 30 min on ice in the dark. After washing twice, cells were incubated with APC-conjugated goat anti-human IgG (H+L)-APC (Dianova, cat. 109-136-088) for 30 min on ice in the dark. […] After washing, binding was measured by flow cytometry and mean fluorescence intensities (MFI) of cell samples were calculated and corrected for background staining using control cells stained with secondary antibodies only.
Equilibrium dissociation constants (KD) of antibody binding were calculated by plotting MFI values and fitting a non-linear regression model for one-site binding to hyperbolic dose-response curves using GraphPad Prism.

[2] = biological target: T2, recombinant human FcγRIIB (CD32B), biotinylated (human, UniProt P31994 43-217, limits assumed, site-directed biotinylation at AviTag); experiment: SPR (Biacore), 37 °C, biotin-captured human CD32B as ligand, steady-state plot; left-hand column, no heading on the sheet
T2 construct: also called human CD32B
T2 sequence (looked up): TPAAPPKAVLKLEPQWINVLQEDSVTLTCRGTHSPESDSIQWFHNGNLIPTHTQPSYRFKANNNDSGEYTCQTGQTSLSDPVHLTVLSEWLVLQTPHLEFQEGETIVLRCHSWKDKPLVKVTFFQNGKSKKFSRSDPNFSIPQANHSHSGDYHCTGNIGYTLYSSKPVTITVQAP
Procedure: FIG. 21: SPR interaction analysis of antibody binding to CD32. […] Affinity parameters were evaluated for interaction with receptors using a Steady State Binding model.

T1 sequence (P08637 17-254 limits assumed): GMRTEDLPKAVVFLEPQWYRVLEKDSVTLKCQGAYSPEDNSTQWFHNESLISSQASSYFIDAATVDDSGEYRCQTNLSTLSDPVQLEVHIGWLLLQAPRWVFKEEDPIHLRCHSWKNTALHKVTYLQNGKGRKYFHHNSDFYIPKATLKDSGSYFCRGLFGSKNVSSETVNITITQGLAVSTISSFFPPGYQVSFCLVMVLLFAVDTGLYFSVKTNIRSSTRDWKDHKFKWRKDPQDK

Kd [1]: 23.5 nM
binding result [2]: no binding
B1: scFv-IgAb_268 (CD123-1xCD16a1) (bispecific antibody)
heavy: QVQLQQSGAEVKKPGASVKVSCKASGYTFTDYYMKWVKQSHGKSLEWMGDIIPSNGATFYNQKFKGKATLTVDRSTSTAYMELSSLRSEDTAVYYCARSHLLRASWFAYWGQGTLVTVSSASTKGPSVFPLAPSSKSTSGGTAALGCLVKDYFPEPVTVSWNSGALTSGVHTFPAVLQSSGLYSLSSVVTVPSSSLGTQTYICNVNHKPSNTKVDKKVEPKSCDKTHTCPPCPAPEFEGGPSVFLFPPKPKDTLMISRTPEVTCVVVAVSHEDPEVKFNWYVDGVEVHNAKTKPREEQYNSTYRVVSVLTVLHQDWLNGKEYKCKVSNKALPAPIEKTISKAKGQPREPQVYTLPPSREEMTKNQVSLTCLVKGFYPSDIAVEWESNGQPENNYKTTPPVLDSDGSFFLYSKLTVDKSRWQQGNVFSCSVMHEALHNHYTQKSLSLSPGGGGGSGGGGSGGGGSGGGGSGGGGSGGGGSSYELTQPLSVSVALGQTARITCGGNNIGSKSVHWYQQKPGQAPVLVIYQDKKRPSGIPERFSGSNSGNTATLTISRAQAGDEADYYCQVWDDYIVLFGCGTKLTVLGGSGGSGGSGGSGGSGGSGGSQVQLVQSGAEVKKPGASVKVSCKASGYTFTNYYMQWVRQAPGQCLEWMGIINPSGGVTSYAQKFQGRVTMTRDTSTSTVYMELSSLRSEDTAVYYCARGSAYYYDFADYWGQGTLVTVSS
light: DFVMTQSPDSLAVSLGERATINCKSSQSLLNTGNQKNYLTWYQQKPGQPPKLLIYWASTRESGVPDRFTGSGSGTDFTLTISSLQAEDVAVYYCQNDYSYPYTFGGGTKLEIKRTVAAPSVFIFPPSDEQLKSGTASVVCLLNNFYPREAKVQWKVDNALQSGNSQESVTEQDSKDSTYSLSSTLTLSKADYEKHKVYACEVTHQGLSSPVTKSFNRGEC
notes: also called AFM28; CD123xCD16A scFv-IgAb_268
